Data as given in patent US20210087281A1 (AGOMAB THERAPEUTICS, published 2021).
Blank lines part the entries; values can stand above or below the binder they belong to.

Legend:
[1] = target: T1, mouse MET ECD (mouse, UniProt P16056 25-931); assay: SPR, MET ECD on chip, crude periplasmic Fab
T1 construct: range 1-931; recombinant ECD made by the applicants; the stated range begins at residue 1; also called mMET; mMET ECD
Procedure: (§1) Fab-expressing phages from the libraries described above were produced according to standard phage display protocols. For selection, phages were first adsorbed to immobilized recombinant human MET ECD, washed, and then eluted using trypsin. After two cycles of selection with human MET ECD, two other cycles were performed in the same fashion using mouse MET ECD. In parallel, we also selected phages alternating a human MET ECD cycle with a mouse MET ECD cycle, for a total of four cycles. Phages selected by the two approaches were pooled together and then used to infect TG1 E. coli. Individual colonies were isolated and secretion of Fabs was induced using IPTG (Fermentas). The Fab-containing periplasmic fraction of bacteria was collected and tested for its ability to bind human and mouse MET ECD by Surface Plasmon Resonance (SPR). Human or mouse MET ECD was immobilized on a CM-5 chip using amine coupling in sodium acetate buffer (GE Healthcare). The Fab-containing periplasmic extracts were loaded into a BIACORE 3000 apparatus (GE Healthcare) with a flow rate of 30 μl/min. The Fab off-rates (koff) were measured over a two minute period. Binding of Fabs to human and mouse MET was further characterized by ELISA using MET ECD in solid phase and periplasmic crude extract in solution.
(§2) TABLE 7 Fabs binding to both human MET (hMET) and mouse MET (mMET). Fabs are grouped in families based on their VH CDR3 sequence. Binding of Fabs to human and mouse MET ECD was determined by Surface Plasmon Resonance (SPR) and by ELISA. SPR values represent the koff (s⁻¹). ELISA values represent the Optical Density (OD) at 450 nm (AU, arbitrary units). Both SPR and ELISA were performed using crude periplasmic extracts. Fab concentration in the extract was not determined. Values are the mean of three independent measurements.

[2] = target: T2, human MET ECD (human, UniProt P08581 25-932); assay: SPR, MET ECD on chip, crude periplasmic Fab
T2 construct: range 1-932; recombinant ECD made by the applicants; the stated range begins at residue 1, so it includes the signal peptide of the entry; also called hMET; hMET ECD
T2 sequence (P08581 25-932 limits assumed, form in doubt): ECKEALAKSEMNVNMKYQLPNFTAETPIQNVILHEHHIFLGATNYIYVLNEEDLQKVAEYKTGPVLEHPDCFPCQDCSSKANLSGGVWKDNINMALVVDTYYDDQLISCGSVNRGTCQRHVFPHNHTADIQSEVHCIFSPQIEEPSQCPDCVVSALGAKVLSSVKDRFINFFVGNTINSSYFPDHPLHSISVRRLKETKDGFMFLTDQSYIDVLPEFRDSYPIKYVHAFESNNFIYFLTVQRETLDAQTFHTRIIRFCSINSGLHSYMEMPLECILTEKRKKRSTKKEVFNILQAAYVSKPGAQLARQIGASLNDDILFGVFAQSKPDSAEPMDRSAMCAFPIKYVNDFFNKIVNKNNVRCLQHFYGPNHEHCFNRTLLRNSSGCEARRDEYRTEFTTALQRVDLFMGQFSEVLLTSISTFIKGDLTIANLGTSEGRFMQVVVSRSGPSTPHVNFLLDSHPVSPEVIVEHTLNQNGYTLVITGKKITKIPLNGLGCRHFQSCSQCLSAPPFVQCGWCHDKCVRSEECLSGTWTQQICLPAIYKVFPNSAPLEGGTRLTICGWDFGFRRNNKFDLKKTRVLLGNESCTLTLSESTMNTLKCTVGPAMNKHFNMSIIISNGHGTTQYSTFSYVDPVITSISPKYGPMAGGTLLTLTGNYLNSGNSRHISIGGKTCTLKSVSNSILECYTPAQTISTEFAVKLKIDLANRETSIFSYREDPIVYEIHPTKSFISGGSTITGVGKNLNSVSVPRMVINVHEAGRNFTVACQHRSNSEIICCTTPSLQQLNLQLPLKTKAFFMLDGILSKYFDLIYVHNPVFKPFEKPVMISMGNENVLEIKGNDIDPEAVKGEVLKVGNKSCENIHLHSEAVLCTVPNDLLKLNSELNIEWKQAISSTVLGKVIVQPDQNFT
Procedure: as §1, §2

[3] = target: T1, mouse MET ECD; assay: ELISA, MET ECD in solid phase, crude periplasmic Fab
Procedure: as §1, §2

[4] = target: T2, human MET ECD; assay: as above
Procedure: as §1, §2

[5] = target: T3, native mouse MET on living cells (mouse, UniProt P16056 25-1379); assay: cell-based or functional assay
[6] = target: T4, native human MET on living cells (human, UniProt P08581 25-1390); assay: cell-based or functional assay
T4 sequence (P08581 25-1390): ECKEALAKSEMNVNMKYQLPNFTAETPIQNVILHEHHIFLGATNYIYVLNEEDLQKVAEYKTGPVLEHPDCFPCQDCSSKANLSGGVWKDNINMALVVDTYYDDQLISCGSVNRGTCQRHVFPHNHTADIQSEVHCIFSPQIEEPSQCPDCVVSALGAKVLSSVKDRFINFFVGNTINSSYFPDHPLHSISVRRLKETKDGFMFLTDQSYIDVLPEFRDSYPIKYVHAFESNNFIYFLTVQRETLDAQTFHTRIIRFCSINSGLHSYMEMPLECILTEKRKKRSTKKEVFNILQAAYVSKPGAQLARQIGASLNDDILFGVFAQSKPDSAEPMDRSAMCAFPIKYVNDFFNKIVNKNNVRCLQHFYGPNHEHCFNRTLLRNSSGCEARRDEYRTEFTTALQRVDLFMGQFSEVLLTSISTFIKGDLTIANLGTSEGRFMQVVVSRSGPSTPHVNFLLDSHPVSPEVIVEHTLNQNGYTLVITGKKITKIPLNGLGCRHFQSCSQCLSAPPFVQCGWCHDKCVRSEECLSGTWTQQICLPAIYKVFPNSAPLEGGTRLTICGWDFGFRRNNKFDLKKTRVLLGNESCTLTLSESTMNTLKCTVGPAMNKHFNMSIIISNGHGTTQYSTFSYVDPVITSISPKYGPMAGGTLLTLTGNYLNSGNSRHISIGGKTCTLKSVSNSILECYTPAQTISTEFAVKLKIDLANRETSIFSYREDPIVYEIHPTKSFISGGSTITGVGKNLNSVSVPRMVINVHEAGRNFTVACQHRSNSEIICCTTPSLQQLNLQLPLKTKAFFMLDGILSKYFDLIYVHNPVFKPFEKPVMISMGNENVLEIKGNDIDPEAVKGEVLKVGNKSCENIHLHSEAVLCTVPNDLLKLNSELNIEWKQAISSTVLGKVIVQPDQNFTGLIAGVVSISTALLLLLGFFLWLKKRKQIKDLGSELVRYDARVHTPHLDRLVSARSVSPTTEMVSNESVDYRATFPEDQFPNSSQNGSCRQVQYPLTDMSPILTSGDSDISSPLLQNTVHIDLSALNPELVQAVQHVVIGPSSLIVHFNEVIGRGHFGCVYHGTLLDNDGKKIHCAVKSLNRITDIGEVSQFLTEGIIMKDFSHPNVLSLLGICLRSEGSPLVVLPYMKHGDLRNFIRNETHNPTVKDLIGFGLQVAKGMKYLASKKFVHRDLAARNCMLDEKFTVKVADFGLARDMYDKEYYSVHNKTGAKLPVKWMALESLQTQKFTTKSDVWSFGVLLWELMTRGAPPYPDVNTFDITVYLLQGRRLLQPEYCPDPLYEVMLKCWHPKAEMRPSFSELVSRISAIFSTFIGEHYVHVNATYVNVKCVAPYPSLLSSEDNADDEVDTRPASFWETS

[7] = target: T1, mouse MET ECD; assay: ELISA, MET ECD in solid phase, mAb 0-20 nM
Procedure: (§3) Production (by transient transfection of mammalian cells) and purification (by protein A affinity chromatography) of the resulting chimeric llama-human IgG1 molecules was outsourced to U-protein Express. Binding of chimeric mAbs to MET was determined by ELISA using hMET or mMET ECD in solid phase and increasing concentrations of antibodies (0-20 nM) in solution. […] Binding capacity (EMAX) varied from antibody to antibody, possibly due to partial epitope exposure in the immobilized antigen, but was similar in the human and mouse setting.

[8] = target: T2, human MET ECD; assay: ELISA, MET ECD in solid phase, mAb 0-20 nM
Procedure: as §3

[9] = target: T3, native mouse MET on living cells; assay: cell-based or functional assay; remark: listed apart in the source
[10] = target: T4, native human MET on living cells; assay: cell-based or functional assay; remark: listed apart in the source
[11] = target: T3, native mouse MET on living cells; assay: cell-based or functional assay; remark: listed apart in the source
[12] = target: T4, native human MET on living cells; assay: cell-based or functional assay; remark: listed apart in the source
[13] = target: T5, human MET-Fc (R&D Systems) (human, UniProt P08581 25-932); assay: competition ELISA, hMET-Fc in solid phase, competitor 0.3 nM biotinylated hHGF
T5 construct: extracellular domain; bought chimeric protein; also called hMET; not shown: Fc portion of human IgG1
T5 sequence (P08581 25-932): as the sequence (P08581 25-932 limits assumed, form in doubt) above
Procedure: (§4) To investigate along this line, we tested the competition between mAbs and HGF by ELISA. Recombinant human and mouse HGF (R&D Systems) were biotinylated at the N-terminus using NHS-LC-biotin (Thermo Scientific). MET-Fc protein, either human or mouse (R&D Systems), was immobilized in solid phase and then exposed to 0.3 nM biotinylated HGF, either human or mouse, in the presence of increasing concentrations of antibodies (0-120 nM).
(§5) A MET-Fc chimeric protein (either human or mouse) was immobilized in solid phase and exposed to a fixed concentration of biotinylated HGF (either human or mouse), in the presence of increasing concentrations of antibodies. […] Antibody-HGF competition is expressed as IC₅₀ (the concentration that achieves 50% competition) and IMAX (the maximum % competition reached at saturation).

[14] = target: T4, native human MET on living cells; assay: flow cytometry, A549 cells
Procedure: (§6) We also analysed whether chimeric anti-MET antibodies bound to native human and mouse MET in living cells. […] Antibody binding to cells was analysed by flow cytometry using phycoerythrin-conjugated anti-human IgG1 antibodies (eBioscience) and a CyAn ADP analyser (Beckman Coulter). As a positive control for human MET binding, we used a commercial mouse anti-human MET antibody (R&D Systems) and phycoerythrin-conjugated anti-mouse IgG1 antibodies (eBioscience).
(§7) As a positive control for mouse MET binding we used a commercial goat anti-mouse MET antibody (R&D Systems) and phycoerythrin-conjugated anti-goat IgG1 antibodies (eBioscience). […] Consistent with the data obtained in ELISA, maximal binding (EMAX) varied depending on antibody, but was similar in human and mouse cells.

[15] = target: T3, native mouse MET on living cells; assay: cell-based or functional assay; remark: listed apart in the source
[16] = target: T4, native human MET on living cells; assay: cell-based or functional assay; remark: listed apart in the source
[17] = target: T3, native mouse MET on living cells; assay: flow cytometry, MLP29 cells
Procedure: as §6, §7

[18] = target: T6, mouse MET-Fc (R&D Systems) (mouse, UniProt P16056 25-929, limits assumed); assay: competition ELISA, mMET-Fc in solid phase, competitor 0.3 nM biotinylated mHGF
T6 construct: bought chimeric protein; also called mMET; not shown: Fc part
Procedure: as §4, §5

- koff [1]: 0.00544 s⁻¹
- koff [2]: 0.00568 s⁻¹
- OD450 [3]: 3.7 AU
- OD450 [4]: 3.7 AU
B1: 76H10 Fab (Fab, V domains shown)
VH: QLQLVESGGGLVQPGGSLRVSCTASGFTFNTYYMTWVRQAPGKGLEWVSDINSGGGTYYADSVKGRFTISRDNAKNTLYLQMNSLKPEDTALYYCVRVRIWPVGYDYWGQGTQVTVSS
VL: QAVVTQEPSLSVSPGGTVTLTCGLSSGSVTTSNYPGWFQQTPGQAPRTLIYNTNNRHSGVPSRFSGSISGNKAALTITGAQPEDEADYYCSLYTGSYTTVFGGGTHLTVL
notes: llama Fab (VH-CH1 and lambda VL-CL) with MYC flag, crude periplasmic extract

- EC50 [7]: 0.048 nM
- EMAX (OD450) [7]: 2.9 AU
- EC50 [8]: 0.064 nM
- EMAX (OD450) [8]: 2.78 AU
- phospho-MET ELISA EC50, MLP29 cells [9]: 0.79 nM
- phospho-MET ELISA EMAX (% HGF activity), MLP29 cells [9]: 66.8%
- phospho-MET ELISA EC50, A549 cells [10]: 1.51 nM
- phospho-MET ELISA EMAX (% HGF activity), A549 cells [10]: 69.7%
- branches per spheroid, MLP29 cells, 0.5 nM [11]: 12.7 branches
- branches per spheroid, MLP29 cells, 2.5 nM [11]: 11.7 branches
- branches per spheroid, MLP29 cells, 12.5 nM [11]: 18.7 branches
- branches per spheroid, LOC cells, 0.5 nM [12]: 9 branches
- branches per spheroid, LOC cells, 2.5 nM [12]: 12.3 branches
- branches per spheroid, LOC cells, 12.5 nM [12]: 16 branches
- IC50 [13]: 0.45 nM
- IMAX [13]: 77.3%
- EC50 [14]: 0.371 nM
- EMAX [14]: 156 % relative to control
- scatter score 0-4, MLP29, 0.001 nM [15]: 0 score
- scatter score 0-4, MLP29, 0.004 nM [15]: 0 score
- scatter score 0-4, MLP29, 0.012 nM [15]: 0 score
- scatter score 0-4, MLP29, 0.037 nM [15]: 0 score
- scatter score 0-4, MLP29, 0.111 nM [15]: 0 score
- scatter score 0-4, MLP29, 0.333 nM [15]: 0 score
- scatter score 0-4, MLP29, 1.000 nM [15]: 1 score
- scatter score 0-4, MLP29, 3.000 nM [15]: 2 score
- scatter score 0-4, MLP29, 9.000 nM [15]: 3 score
- scatter score 0-4, HPAF-II, 0.001 nM [16]: 0 score
- scatter score 0-4, HPAF-II, 0.004 nM [16]: 0 score
- scatter score 0-4, HPAF-II, 0.012 nM [16]: 0 score
- scatter score 0-4, HPAF-II, 0.037 nM [16]: 0 score
- scatter score 0-4, HPAF-II, 0.111 nM [16]: 0 score
- scatter score 0-4, HPAF-II, 0.333 nM [16]: 0 score
- scatter score 0-4, HPAF-II, 1.000 nM [16]: 1 score
- scatter score 0-4, HPAF-II, 3.000 nM [16]: 2 score
- scatter score 0-4, HPAF-II, 9.000 nM [16]: 3 score
- EC50 [17]: 0.359 nM
- EMAX [17]: 172 % relative to control
- IC50 [18]: 0.52 nM
- IMAX [18]: 72.8%
B2: 72F8 chimeric llama-human IgG1 mAb (antibody, V domains shown)
VH: ELQLVESGGGLVQPGGSLRLSCAASGFTFSNYVMSWVRQAPGKGLEWVSDTNSGGSTSYADSVKGRFTISRDNAKNTLYLQMNSLKPEDTALYYCARSFFYGMNYWGKGTQVTVSS
VL: QSALTQPPSLSASPGSSVRLTCTLSSGNNIGSYDISWYQQKAGSPPRYLLNYYTDSRKHQDSGVPSRFSGSKDASANAGLLLISGLQPEDEADYYCSAYKSGSYRWVFGGGTHVTVL
notes: llama VH on human IgG1 CH1-CH2-CH3, llama VL on human lambda CL
- protection from staurosporine, viability EC50, MLP29 cells [5]: > 32 nM
- protection from staurosporine, viability EMAX, MLP29 cells [5]: 43.8%
- protection from staurosporine, viability EC50, MCF10A cells [6]: > 32 nM
- protection from staurosporine, viability EMAX, MCF10A cells [6]: 35.8%
